This data set relates to Escherichia coli TOP10. The data set is described as follows: shrunken log2 fold change of peptide-encoding DNA abundance (4.5 h post-induction vs induction); higher = less antimicrobial activity (less host growth inhibition). The note with it: time post-induction: 4.5 h; library: site-saturation at positions 5, 18, 19, 20.
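Also: peptides expressed intracellularly from a pBAD plasmid library in pooled LB shake-flask culture, induced with 0.3% L-arabinose, DNA abundance read by NGS, three biological replicates, DESeq2 with apeglm shrinkage.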

On to RRIRARPPRLPRPRPRPPREPRP, for which the “shrunken log2 fold change” value worked out at 1.01.

Take RRIRSRPPRLPRPRPRPILVPRP: the “shrunken log2 fold change” value was 0.0112.

Take RRIRSRPPRLPRPRPRPCGQPRP: the “shrunken log2 fold change” value was 0.088.

With RRIRVRPPRLPRPRPRPVKSPRP, the “shrunken log2 fold change” value was -0.0272.

For RRIRMRPPRLPRPRPRPADIPRP, the “shrunken log2 fold change” value turned out to be 0.067.

RRIRGRPPRLPRPRPRPWRVPRP: the “shrunken log2 fold change” value came out at 0.499.

For the sequence RRIRFRPPRLPRPRPRPWGRPRP, the “shrunken log2 fold change” value amounted to 0.0219.

Turning to RRIRSRPPRLPRPRPRPMGYPRP, the “shrunken log2 fold change” value was -0.0075.

In the case of RRIRQRPPRLPRPRPRPENHPRP, the “shrunken log2 fold change” value is -0.176.

For RRIRERPPRLPRPRPRPDATPRP, the “shrunken log2 fold change” value was 0.645.

With RRIRFRPPRLPRPRPRPYWLPRP, the “shrunken log2 fold change” value is -0.234.

Take RRIRLRPPRLPRPRPRPVPPPRP: the “shrunken log2 fold change” value was 0.245.

In the case of RRIRCRPPRLPRPRPRPFAEPRP, the “shrunken log2 fold change” value is -0.0347.

With RRIRCRPPRLPRPRPRPSEDPRP, the “shrunken log2 fold change” value is -0.112.

Regarding RRIRARPPRLPRPRPRPITCPRP, the “shrunken log2 fold change” value was -0.119.

Regarding RRIRNRPPRLPRPRPRPIAAPRP, the “shrunken log2 fold change” value is 0.147.

In the case of RRIRLRPPRLPRPRPRPNELPRP, the “shrunken log2 fold change” value was found to be 0.0122.

With RRIRNRPPRLPRPRPRPHREPRP, the “shrunken log2 fold change” value was -0.00211.

On to RRIRGRPPRLPRPRPRPSKAPRP, for which the “shrunken log2 fold change” value is 0.165.

With RRIRSRPPRLPRPRPRPGACPRP, the “shrunken log2 fold change” value came to 0.0577.

Regarding RRIRMRPPRLPRPRPRPVAIPRP, the “shrunken log2 fold change” value was determined as 0.104.

Turning to RRIRYRPPRLPRPRPRPADMPRP, the “shrunken log2 fold change” value is -0.382.

As to RRIRKRPPRLPRPRPRPNAGPRP, the “shrunken log2 fold change” value is -0.00783.

As for RRIRVRPPRLPRPRPRPVAPPRP, the “shrunken log2 fold change” value came to 0.242.

Consider RRIRNRPPRLPRPRPRPHTRPRP, for which the “shrunken log2 fold change” value is 0.0907.

In the case of RRIRDRPPRLPRPRPRPGRHPRP, the “shrunken log2 fold change” value stood at 0.186.

With RRIRGRPPRLPRPRPRPLVWPRP, the “shrunken log2 fold change” value was determined as 0.952.

Take RRIRGRPPRLPRPRPRPIQPPRP: the “shrunken log2 fold change” value was determined as 0.46.

With RRIRCRPPRLPRPRPRPYRKPRP, the “shrunken log2 fold change” value was -0.49.

For RRIRRRPPRLPRPRPRPLMDPRP, the “shrunken log2 fold change” value was found to be 0.235.

Turning to RRIRVRPPRLPRPRPRPLLGPRP, the “shrunken log2 fold change” value is -0.131.

In the case of RRIRKRPPRLPRPRPRPDAQPRP, the “shrunken log2 fold change” value is 1.59.

Regarding RRIRSRPPRLPRPRPRPTVGPRP, the “shrunken log2 fold change” value came to 0.187.

For RRIRRRPPRLPRPRPRPMQGPRP, the “shrunken log2 fold change” value was 0.031.

As for RRIRPRPPRLPRPRPRPHIRPRP, the “shrunken log2 fold change” value was -0.0938.

Consider RRIRWRPPRLPRPRPRPAQIPRP, for which the “shrunken log2 fold change” value was determined as 0.0333.

As for RRIRARPPRLPRPRPRPVTFPRP, the “shrunken log2 fold change” value worked out at 0.0573.

As to RRIRIRPPRLPRPRPRPRLLPRP, the “shrunken log2 fold change” value was -0.003.

Turning to RRIRNRPPRLPRPRPRPDGSPRP, the “shrunken log2 fold change” value worked out at 0.0143.

As to RRIRSRPPRLPRPRPRPYTCPRP, the “shrunken log2 fold change” value was -0.039.

RRIRDRPPRLPRPRPRPPKDPRP: the “shrunken log2 fold change” value turned out to be 0.314.

RRIRPRPPRLPRPRPRPKQKPRP: the “shrunken log2 fold change” value worked out at 0.123.

RRIRRRPPRLPRPRPRPHCNPRP: the “shrunken log2 fold change” value was -0.135.

With RRIRIRPPRLPRPRPRPLAVPRP, the “shrunken log2 fold change” value stood at 0.097.

Regarding RRIRARPPRLPRPRPRPCPDPRP, the “shrunken log2 fold change” value was -0.161.

For the origin of these results see the supplement of paper PMC9112550, “Optimization of the antimicrobial peptide Bac7 by deep mutational scanning” (BMC Biology, 2022).
